Assay results from EP2500357A2 (Abbott Laboratories, dated 2012).

Columns and labels:
Test in all cases: cell-based or functional assay
[1] = target: T1, recombinant human IL-1β (human, UniProt P01584 117-269)
[2] = target: T1, recombinant human IL-1β; remark: listed apart in the source
[3] = target: T2, human IL-12 (human, UniProt P29459 23-219; P29460 23-328)
T2 sequence (looked up) 1: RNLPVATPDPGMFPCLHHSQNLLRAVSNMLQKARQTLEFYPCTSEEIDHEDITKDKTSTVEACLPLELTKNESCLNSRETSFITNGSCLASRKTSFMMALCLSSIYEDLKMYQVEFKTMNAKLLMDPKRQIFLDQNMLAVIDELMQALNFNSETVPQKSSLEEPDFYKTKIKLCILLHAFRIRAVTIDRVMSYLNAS
T2 sequence (looked up) 2: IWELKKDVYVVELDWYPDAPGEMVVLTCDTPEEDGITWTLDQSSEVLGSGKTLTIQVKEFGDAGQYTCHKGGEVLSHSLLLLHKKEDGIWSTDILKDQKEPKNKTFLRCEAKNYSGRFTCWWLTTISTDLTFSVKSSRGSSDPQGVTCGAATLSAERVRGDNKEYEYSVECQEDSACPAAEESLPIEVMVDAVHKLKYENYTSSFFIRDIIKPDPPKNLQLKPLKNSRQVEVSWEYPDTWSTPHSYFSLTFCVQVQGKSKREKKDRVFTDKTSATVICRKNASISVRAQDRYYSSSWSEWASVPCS

[4] = target: mouse IL-1β (mouse, UniProt P10749 118-269)
Sequence of mouse IL-1β (P10749 118-269 limits assumed): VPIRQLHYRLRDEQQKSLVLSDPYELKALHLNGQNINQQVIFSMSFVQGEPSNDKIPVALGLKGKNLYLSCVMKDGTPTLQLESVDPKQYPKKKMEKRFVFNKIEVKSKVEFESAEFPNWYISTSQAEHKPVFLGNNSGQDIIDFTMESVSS

[5] = target: T3, mouse IL-1α (mouse, UniProt P01582 115-270)
T3 sequence (looked up): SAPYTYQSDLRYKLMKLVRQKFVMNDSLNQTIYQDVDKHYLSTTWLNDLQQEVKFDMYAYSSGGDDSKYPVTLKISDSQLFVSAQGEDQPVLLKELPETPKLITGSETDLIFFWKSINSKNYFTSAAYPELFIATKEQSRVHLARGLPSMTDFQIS

[6] = target: T1, recombinant human IL-1β; remark: listed apart in the source
[7] = target: T4, recombinant human IL-1α (human, UniProt P01583 113-271)
T4 sequence (looked up): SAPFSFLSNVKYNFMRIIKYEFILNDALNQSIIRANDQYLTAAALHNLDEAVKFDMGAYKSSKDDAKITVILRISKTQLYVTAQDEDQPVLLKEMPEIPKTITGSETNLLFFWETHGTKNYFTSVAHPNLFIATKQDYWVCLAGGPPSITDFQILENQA

[8] = target: T1, recombinant human IL-1β; remark: listed apart in the source
[9] = target: T4, recombinant human IL-1α; remark: listed apart in the source
[10] = target: human IL-18 (human, UniProt Q14116 37-193)
[11] = target: T2, human IL-12; remark: listed apart in the source
[12] = target: T4, recombinant human IL-1α; remark: listed apart in the source

B1: murine anti-hIL-1β mAb 1B12.4H4 (antibody, V domains shown)
VH: QVHLKESGPGLVAPSQSLSITCTVSGFSLTDYGVSWIRQPPGKGLEWLGLIWGGGDTYYNSPLKSRLSIRKDNSKSQVFLKMNSLQTDDTAVYYCAKQRTLWGYDLYGMDYWGQGTSVTVSS
VL: ETTVTQSPASLSMAIGEKVTIRCITSTDIDVDMNWYQQKPGEPPKLLISQGNTLRPGVPSRFSSSGSGTDFVFIIENMLSEDVADYYCLQSDNLPLTFGAGTKLELKR
For B1, the “IC50, inhibition of IL-8 production by MRC-5 cells” value (from here on “IC50, inhibition of IL-8 production”) [1] was 0.53 nM and the “IC50, MRC-5 bioassay” value [2] was 0.6 nM.

B2: ABT874 (anti-human IL-12p40 mAb) (antibody, V domains shown)
VH: QVQLVESGGGVVQPGRSLRLSCAASGFTFSSYGMHWVRQAPGKGLEWVAFIRYDGSNKYYADSVKGRFTISRDNSKNTLYLQMNSLRAEDTAVYYCKTHGSHDNWGQGTMVTVSS
VL: QSVLTQPPSVSGAPGQRVTISCSGSRSNIGSNTVKWYQQLPGTAPKLLIYYNDQRPSGVPDRFSGSKSGTSASLAITGLQAEDEADYYCQSYDRYTHPALLFGTGTKVTVLG
For B2, the “IC50, IL-12-induced IFN-γ production by PHA blast cells” value [3] was 0.005 nM.

B3: mouse anti-mouse IL-1β mAb 10G11 (antibody, V domains shown)
VH: EVQLQQSGPELVKPGTSVKMSCKTSGYTFTSYVMHWVKQKPGQGLEWIGYIIPYNDNTKYNEKFKGKATLTSDKSSSTAYMELSSLTSEDSAVYYCARRNEYYGSSFFDYWGQGTTLTVSS
VL: DIQMTQSPASLSASVGETVTITCRGSGILHNYLVWYQQKQGKSPQLLVYSAKILADGVPSRFSGSGSGTQYSLKINSLQPEDFGSYYCQHFWSTPFTFGSGTKLEIKR
With B3 the “IC50, in vitro potency (assay not described)” value (from here on “IC50 … (assay not described)”) [4] was 0.37 nM.

B4: murine anti-hIL-1β mAb 6B12.4F6 (antibody, V domains shown)
VH: EVQLQQSGPELVKTGTSVKISCKASGYSFTGYYMHWVRQSHGKSLEWIGYISCYNGFTSYNPKFKGKATFTVDTSSSTAYIQFSRLTSEDSAVYYCARSDYYGTNDYWGQGTTLTVSS
VL: QIVLTQSPAIMSASPGEKVTITCSASSSVSYMHWFQQKPGASPKLWIYSTSNLASGVPARFSGSGSGTSYSLTVSRMEAEDAATYYCQQRSTYPYTFGGGTKLEIKR
With B4 the “IC50, inhibition of IL-8 production” value [1] was 0.32 nM and the “IC50, MRC-5 bioassay” value [2] was 0.4 nM.

B5: mIL-1α/β DVD-Ig (bispecific antibody, mouse IgG2a, kappa)
heavy: EVQLQQSGPELVKPGTSVKMSCKTSGYTFTSYVMHWVKQKPGQGLEWIGYIIPYNDNTKYNEKFKGKATLTSDKSSSTAYMELSSLTSEDSAVYYCARRNEYYGSSFFDYWGQGTTLTVSSAKTTAPSVYPLAPQVILKESGPGILQPSQTLSLTCSFSGFSLSTYGTAVNWIRQPSGKGLEWLAQIGSDDRKLYNPFLKSRITLSEDTSNSQVFLKITSVDTEDSATYYCANGVMEYWGLGTSVTVSSAKTTAPSVYPLAPVCGDTTGSSVTLGCLVKGYFPEPVTLTWNSGSLSSGVHTFPAVLQSDLYTLSSSVTVTSSTWPSQSITCNVAHPASSTKVDKKIEPRGPTIKPCPPCKCPAPNLLGGPSVFIFPPKIKDVLMISLSPIVTCVVVDVSEDDPDVQISWFVNNVEVHTAQTQTHREDYNSTLRVVSALPIQHQDWMSGKEFKCKVNNKDLPAPIERTISKPKGSVRAPQVYVLPPPEEEMTKKQVTLTCMVTDFMPEDIYVEWTNNGKTELNYKNTEPVLDSDGSYFMYSKLRVEKKNWVERNSYSCSVVHEGLHNHHTTKSFSRTPGK
light: DIQMTQSPASLSASVGETVTITCRGSGILHNYLVWYQQKQGKSPQLLVYSAKILADGVPSRFSGSGSGTQYSLKINSLQPEDFGSYYCQHFWSTPFTFGSGTKLEIKRADAAPTVSIFPPSIVMTQTPKFLLVSAGDRVTITCKASQSVNHDVAWYQQMPGQSPKLLIYFASNRYTGVPDRFTGSGYGTDFTFTISTVQAEDLAVYFCQQDYSSPYTFGGGTKLEIKRADAAPTVSIFPPSSEQLTSGGASVVCFLNNFYPKDINVKWKIDGSERQNGVLNSWTDQDSKDSTYSMSSTLTLTKDEYERHNSYTCEATHKTSTSPIVKSFNRNEC
B5 was tested, and the “IC50 … (assay not described)” value [4] was 0.8 nM and the “IC50 … (assay not described)” value [5] was 2 nM.

B6: hIL-1a/bDVD2-Ig (bispecific antibody, human IgG1, kappa)
heavy: not shown
light: NIVLTQSPASLAVSLGQRATISCRASESVDSYGNSYMHWYQQKPGQPPKLLIYLASNLESGVPARFSGSGSRTDFTLTIDPVEADDAATYYCQQNNEDPFTFGSGTKLEIKRADAAPNIQMTQTTSSLSASLGDRVTISCRASQDISNCLNWYQQKPDGTVKLLIYYTSRLHSGVPSRFSGSGSGTDYSLTISNLEQEDIATYFCQQGKTLPYAFGGGTKLEINRTVAAPSVFIFPPSDEQLKSGTASVVCLLNNFYPREAKVQWKVDNALQSGNSQESVTEQDSKDSTYSLSSTLTLSKADYEKHKVYACEVTHQGLSSPVTKSFNRGEC
In the case of B6, the “dual-inhibition activity, IL-8 synthesis by MRC-5 cells with both IL-1α and IL-1β present” value [6] is reported as 1.2 nM, the “neutralizing activity to hIL-1β relative to DVD1-Ig” value [6] is reported as 3 fold and the “dual-inhibition activity, IL-8 synthesis by MRC-5 cells with both IL-1α and IL-1β present” value [7] is reported as 1.2 nM. The “neutralizing activity against hIL-1α relative to the chimeric Abs” value [7] was 3 fold, the “Potency (IC50), MRC-5 bioassay” value [8] was 1.6 nM and the “Potency (IC50), MRC-5 bioassay” value [9] was 2.9 nM.

B7: murine anti-hIL-1β mAb 13F5.G5 (antibody, V domains shown)
VH: QVQLQQSGAELVRPGSSVKISCKASGYAFSSYWMNWVKQRPGQGLEWIGQIYPGDGDTNYNGKFKGKATLTADKSSSTSYMQLSGLTSEDSAMYFCVRFPTGNDYYAMDYWGQGTSVTVSS
VL: NIVLTQSPASLAVSLGQRATISCRASESVDSYGNSYMHWYQQKPGQPPKLLIYLASNLESGVPARFSGSGSRTDFTLTIDPVEADDAATYYCQQNNEDPFTFGSGTKLEIKR
B7 was tested, and the “IC50, inhibition of IL-8 production” value [1] was 0.6 nM and the “Potency (IC50), MRC-5 bioassay” value [8] was 0.6 nM.

B8: DVD1812LL (anti-IL12/IL18 DVD-Ig) (bispecific antibody, human IgG1, kappa)
heavy: not shown
light: EIVMTQSPATLSVSPGERATLSCRASESISSNLAWYQQKPGQAPRLFIYTASTRATDIPARFSGSGSGTEFTLTISSLQSEDFAVYYCQQYNNWPSITFGQGTRLEIKRTVAAPSVFIFPPQSVLTQPPSVSGAPGQRVTISCSGSRSNIGSNTVKWYQQLPGTAPKLLIYYNDQRPSGVPDRFSGSKSGTSASLAITGLQAEDEADYYCQSYDRYTHPALLFGTGTKVTVLGTVAAPSVFIFPPSDEQLKSGTASVVCLLNNFYPREAKVQWKVDNALQSGNSQESVTEQDSKDSTYSLSSTLTLSKADYEKHKVYACEVTHQGLSSPVTKSFNRGEC
In the case of B8, the “Potency (IC50), KG-1 bioassay (IFN-γ production)” value [10] is reported as 0.078 nM and the “Potency (IC50), IL-12-induced IFN-γ production by PHA blast cells” value [3] is reported as 0.118 nM.

B9: DVD1812SL (anti-IL12/IL18 DVD-Ig) (bispecific antibody, human IgG1, kappa)
heavy: not shown
light: EIVMTQSPATLSVSPGERATLSCRASESISSNLAWYQQKPGQAPRLFIYTASTRATDIPARFSGSGSGTEFTLTISSLQSEDFAVYYCQQYNNWPSITFGQGTRLEIKRTVAAPQSVLTQPPSVSGAPGQRVTISCSGSRSNIGSNTVKWYQQLPGTAPKLLIYYNDQRPSGVPDRFSGSKSGTSASLAITGLQAEDEADYYCQSYDRYTHPALLFGTGTKVTVLGTVAAPSVFIFPPSDEQLKSGTASVVCLLNNFYPREAKVQWKVDNALQSGNSQESVTEQDSKDSTYSLSSTLTLSKADYEKHKVYACEVTHQGLSSPVTKSFNRGEC
For B9, the “Potency (IC50), KG-1 bioassay (IFN-γ production)” value [10] was 0.04 nM and the “Potency (IC50), IL-12-induced IFN-γ production by PHA blast cells” value [3] was 0.366 nM.

B10: mouse anti-mouse IL-1α mAb 9H10 (antibody, V domains shown)
VH: QVILKESGPGILQPSQTLSLTCSFSGFSLSTYGTAVNWIRQPSGKGLEWLAQIGSDDRKLYNPFLKSRITLSEDTSNSQVFLKITSVDTEDSATYYCANGVMEYWGLGTSVTVSS
VL: SIVMTQTPKFLLVSAGDRVTITCKASQSVNHDVAWYQQMPGQSPKLLIYFASNRYTGVPDRFTGSGYGTDFTFTISTVQAEDLAVYFCQQDYSSPYTFGGGTKLEIKR
With B10 the “IC50 … (assay not described)” value [5] was 0.2 nM.

B11: anti-IL-12 mAb 1D4.1 (antibody, V domains shown)
VH: EVTLRESGPALVKPTQTLTLTCTFSGFSLSKSVMGVSWIRQPPGKALEWLAHIYWDDDKYYNPSLKSRLTISKDTSKNQVVLTMTNMDPVDTATYYCARRGIRSAMDYWGQGTTVTVSS
VL: DIVMTQSPDSLAVSLGERATINCKASQSVSNDVAWYQQKPGQPPKLLIYYASNRYTGVPDRFSGSGSGTDFTLTISSLQAEDVAVYYCQQDYNSPWTFGGGTKVEIKR
B11 was tested, and the “Potency (IC50), PBMC assay (IL-12)” value [11] was 0.418 nM.

B12: murine anti-hIL-1α mAb 3D12.E3 (antibody, V domains shown)
VH: QIQLVQSGPELKKPGETVKISCKASGYTFRNYGMNWVKQAPGKDLKRMAWINTYTGESTYADDFKGRFAFSLETSASTAYLQINNLKNEDTATYFCARGIYYYGSSYAMDYWGQGTSVTVSS
VL: NIQMTQTTSSLSASLGDRVTISCRASQDISNCLNWYQQKPDGTVKLLIYYTSRLHSGVPSRFSGSGSGTDYSLTISNLEQEDIATYFCQQGKTLPYAFGGGTKLEINR
In the case of B12, the “IC50, inhibition of IL-8 production” value [12] is reported as 0.67 nM and the “Potency (IC50), MRC-5 bioassay” value [9] is reported as 0.67 nM.
